Biological target: C5b-8 complex (human, UniProt P01031 752-1676; P01031 19-673; P13671 22-934; P10643 23-843; P07357 31-584; …)
Assay: negative-stain electron microscopy

B1: C9 (natural protein)
chain: not shown
Question: Does B1 bind?
Answer: binds
